Results published in patent US8802376B2, “Methods for identifying candidate cytotoxic antibody molecules” (Agency for Science, Technology and Research, priority 2010, dated 2014).
Values belong to the molecule of their own block, whether it stands above or below them.

What was measured:
[1] = system: human embryonic stem cells (hESC); experiment: inhibition of mAb84 binding to hESC by soluble trisaccharide; type: cell-based; settings: trisaccharide 0.4 mM, 0.8 mM, 2 mM, 4 mM; mAb84 (25 pM, 5 μg) in 200 μl, 2×10^5 hESC
Protocol: (§1) The importance of the trisaccharide Fucα1-2Galβ1-3GlcNA in mediating the cytotoxic interaction of mAb84 on human embryonic stem cells (hESC) was investigated by assessing the ability of synthetic soluble trisaccharide Fucα1-2Galβ1-3GlcNA to (i) inhibit the binding of mAb84 to hESC and (ii) reduce the cytotoxic effect of mAb84 on hESC.
(§2) mAb84 (25 pM, 5 μg) in 200 μl volume was added to 2×10^5 hESC and preincubated for 15 minutes prior to addition of synthetic soluble trisaccharide Fucα1-2Galβ1-3GlcN (in concentrations of 0 (control), 0.4 mM, 0.8 mM, 2 mM, 4 mM).

[2] = system: human embryonic stem cells (hESC); experiment: relative viability of hESC in response to mAb84 with added trisaccharide; type: cell-based
Protocol: as §1, §2

day 22 EB = experiment: mAb 84-mediated killing on day 22 EB; type: cell-based, human
[3] = system: undifferentiated human embryonic stem cells (hESC); settings: cited from earlier work
FGF2-starved hESC = experiment: mAb 84-mediated killing on FGF2-starved hESC; type: cell-based, human
[4] = target: T1, PODXL on the surface of hESCs (Homo sapiens, UniProt O00592); experiment: kinetics of mAb84 binding to PODXL on the surface of hESCs
T1 construct: mAb 84 only detected hESC—PODXL but not expressed PODXL; endogenous in cells; host or cells: hESC (HES-3)
T1 sequence (O00592 23-558): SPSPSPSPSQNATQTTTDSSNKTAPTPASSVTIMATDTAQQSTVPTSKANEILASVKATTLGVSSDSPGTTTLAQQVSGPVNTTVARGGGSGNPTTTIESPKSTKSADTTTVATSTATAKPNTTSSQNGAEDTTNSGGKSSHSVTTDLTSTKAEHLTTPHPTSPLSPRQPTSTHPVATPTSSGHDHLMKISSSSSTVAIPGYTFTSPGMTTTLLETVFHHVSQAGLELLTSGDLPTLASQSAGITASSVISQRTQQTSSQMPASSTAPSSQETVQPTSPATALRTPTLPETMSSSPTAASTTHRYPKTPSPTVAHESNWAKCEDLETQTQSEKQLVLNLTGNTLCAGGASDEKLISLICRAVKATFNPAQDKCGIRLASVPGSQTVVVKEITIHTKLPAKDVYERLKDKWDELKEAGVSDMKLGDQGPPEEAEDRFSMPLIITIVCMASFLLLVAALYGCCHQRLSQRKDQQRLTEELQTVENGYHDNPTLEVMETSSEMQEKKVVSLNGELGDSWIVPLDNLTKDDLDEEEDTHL

IPSCs = settings: WO/2010/033084; cited from earlier work
PODXL from hESC (HES-3) = target: T2, PODXL from hESC (HES-3) (Homo sapiens, UniProt O00592); experiment: Western blot of PODXL from hESC probed with antibodies; type: binding; settings: SDS-PAGE
T2 construct: mAb 84 only detected hESC—PODXL but not expressed PODXL; endogenous in cells; host or cells: hESC (HES-3)
T2 sequence (O00592 23-558): T1 sequence (O00592 23-558)
Source text: (§3) The gene encoding PODXL was isolated and sequenced from hESC. The gene was cloned into vectors and expressed either unglycosylated (in vitro TnT) or in mammalian cells (HEK or COS cells which are capable of glycosylating the expressed protein).
(§4) The proteins obtained were then resolved on SDS-PAGE, Western blotted and probed with antibodies. The antibodies used were commercially available anti-PODXL antibodies (monoclonal and polyclonal) and mAb 84. […] For COS and HEK expressed PODXL, only monoclonal anti-PODXL detected both the expressed PODXL and PODXL from hESC.
In either COS or HEK cells, PODXL is glycosylated (and so has a higher MW). However the band is lower than PODXL expressed in hESC (HES-3). Also, mAb 84 only detected hESC—PODXL but not expressed PODXL. This led to the conclusion that there is a stem cell-specific modification (glycosylation) to PODXL. Without being bound by theory, it appears that when PODXL is glycosylated by stem cells the resulting glycan structure is different that of PODXL glycosylated by other cells.

[5] = target: T3, PODXL over-expressed in HEK and COS cells (Homo sapiens, UniProt O00592); experiment: Western blot of COS and HEK expressed PODXL probed with antibodies; type: binding; settings: SDS-PAGE
T3 construct: expressed in transfected cells; host or cells: HEK or COS cells
T3 sequence (O00592 23-558): T1 sequence (O00592 23-558)
Source text: as §3, §4

[6] = Printed Glycan Array V4.1 (Consortium for Functional Glycomics) binding
Protocol: Buffers: • TSM=20 mM Tris-HCl, pH 7.4 150 mM NaCl, 2 mM CaCl2, 2 mM MgCl2 • TSM Wash Buffer (TSMW)=TSM Buffer+0.05% Tween-20 • TSM Binding Buffer (TSMBB)=TSM buffer+0.05% Tween 20+1% BSA
Protocol: • 1. Make working stocks of washing buffers (TSM, TSM Wash Buffer, and H2O) or collect reagents and bring to room temperature if they have been in the refrigerator. • 1.1. Buffer (A) TSM-20 mM Tris-HCl, pH 7.4 150 mM NaCl, 2 mM CaCl2, 2 mM MgCl2 • 1.2. Buffer (B) TSM Wash Buffer (TSMW)—TSM Buffer+0.05% Tween-20 • 1.3. Buffer (C) TSM Binding Buffer (TSMBB)—TSM buffer+0.05% Tween 20+1% BSA • 1.4. dH20 • 2. Prepare 100 μl of sample by diluting antibody in TSMBB or appropriate Binding Buffer based on properties of Antibody to a final concentration of 5-50 μg/ml or an appropriate concentration required for the analysis. • mAb84 antibodies were added at a concentration of 50 μg/ml. • mAb85 antibodies were added at a concentration of 50 μg/ml. • 3. Remove slide(s) from dessicator and label slide with sample name near barcode, outside of the black marks. • 4. […]
mAb84 antibodies were contacted with the glycans. […] Bound antibodies were detected using AlexaFluor-488-labeled secondary antibodies as described above. The secondary antibodies were then detected using a fluorescence scanner. Binding is presented in relative fluorescence units (RFU). […]

[7] = target: T4, unglycosylated PODXL (in vitro transcription and translation (TnT)) (Homo sapiens, UniProt O00592); experiment: Western blot of in vitro TnT-expressed PODXL probed with antibodies; type: binding; settings: SDS-PAGE
T4 construct: made in house; host or cells: in vitro transcription and translation (cell-free)
T4 sequence (O00592 23-558): T1 sequence (O00592 23-558)
Source text: as §3, §4

day 8 embyroid bodies = experiment: mAb 84 binding reactivity to embryoid bodies; type: cell-based, human
hESC = hESC treated with mAb 84 prior to transplantation into SCID mice; cited from earlier work

Molecule: CC(=O)N[C@H]1C(O)O[C@H](CO)[C@@H](O)[C@@H]1O[C@@H]1O[C@H](CO)[C@H](O)[C@H](O)[C@H]1O[C@@H]1O[C@@H](C)[C@@H](O)[C@@H](O)[C@@H]1O (stereo partly shown) [Fucα1-2Galβ1-3GlcNAc]
- inhibition of mAb84 binding to hESC [1]: dose dependently inhibit
- cytotoxic effect of mAb84 on hESC (relative viability) ([2]; increasing concentrations of trisaccharide 0.4 mM, 0.8 mM, 2 mM, 4 mM): reduction
- cytotoxic effect of mAb84 on hESC (relative viability) ([2]; trisaccharide 2 mM): abolished
- cytotoxic effect of mAb84 on hESC (relative viability) ([2]; trisaccharide 4 mM): abolished

- koff [4]: 0.0029 s⁻¹
- kon [4]: 7.1 e4 M^−1 s^−1
- detection of PODXL from hESC (PODXL from hESC (HES-3)): detected
- detection of expressed (glycosylated) PODXL [5]: does not bind
- relative binding (binding of mAb84 divided by binding of mAb85 to the same glycans) ([6]; 9 glycans containing Fucα1-2Galβ1-3GlcNAc, RFU values): at least 37 times
- binding to glycans in the glycan array ([6]; 465 glycans, V4.1 array, Alexa488 labeled secondary antibody): selectively bind
- detection of unglycosylated PODXL [7]: did not detect
- detection of unglycosylated PODXL ([7]; listed as mAb 84): does not bind
- binding reactivity compared to undifferentiated hESC (day 8 embyroid bodies): reduced
B1: mAb84: IgM monoclonal antibody which specifically binds and kills undifferentiated human embryonic stem cells; antigen is PODXL (antibody, V domains shown)
VH: QVQLQQSGGGLVQPGGSMKLSCVASGFTFSNYWMNWVRQSPEKGLEWVAEIRLKSNNYATHYAESVKGRFTISRDDSKSSVYLQMNNLRAEDTGIYYCTGERAWGQGTTVTVSS
VL: DIELTQSPAIMSASPGEKVTMTCSASSSVNYMYWYQQKPGSSPRLLIYDTSNLASGVPVRFSGSGSGTSYSLTISRMEAEDAATYYCQQWSSYPYTFGGGTKLEIKR
modifications: Synthetic sequenceVH chain of mAb 84; Synthetic sequence VL chain of mAb 84
notes: antigen is PODXL
- mAb 84-mediated killing (day 22 EB): loss
- cytotoxicity against undifferentiated hESCs ([3]; WO 2007/102787): cytotoxic
- incubation time to cell death of undifferentiated hESC ([3]; undifferentiated hESC): ≤ 30 min
- mAb 84-mediated killing (FGF2-starved hESC): decrease
- cytotoxicity against IPSCs (IPSCs): cytotoxic
- tumour formation (hESC): absence of tumour formation
